This note sets out measurements from article PMC8682772, “Negative feedback for DARS2–Fis complex by ATP–DnaA supports the cell cycle-coordinated regulation for chromosome replication” (Nucleic Acids Research, 2021).

Data set [1] concerns the target T1, DnaA (Escherichia coli, UniProt P03004 1-467).
T1 sequence: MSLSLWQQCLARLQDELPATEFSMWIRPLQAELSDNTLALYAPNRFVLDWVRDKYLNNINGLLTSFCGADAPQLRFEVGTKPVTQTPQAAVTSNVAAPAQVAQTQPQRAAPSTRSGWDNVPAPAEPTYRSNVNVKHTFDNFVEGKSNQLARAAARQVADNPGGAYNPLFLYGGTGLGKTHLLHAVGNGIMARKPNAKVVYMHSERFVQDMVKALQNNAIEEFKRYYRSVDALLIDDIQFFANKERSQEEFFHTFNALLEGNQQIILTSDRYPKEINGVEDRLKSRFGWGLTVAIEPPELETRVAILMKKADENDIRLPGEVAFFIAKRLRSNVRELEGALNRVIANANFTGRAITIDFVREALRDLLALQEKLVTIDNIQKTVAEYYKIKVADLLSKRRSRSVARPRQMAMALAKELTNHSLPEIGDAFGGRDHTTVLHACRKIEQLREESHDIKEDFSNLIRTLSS
The experiment in a line: EMSA; ATP; oligomers, trimer C3 a major form at >=480 nM DnaA; EMSA: 20 mM HEPES-KOH pH 7.6, 80 mM KCl, 1 mM EDTA, 4 mM DTT, 5 mM Mg acetate, 0.1 mg/ml BSA, 10% glycerol, 3 uM ATP or ADP, lambda-DNA competitor, 35 nM DNA, 30 C 5 min; pull-down in same buffer with 400 nM FBS1 competitor, preincubations on ice. The following applies: protein: recombinant; blunt. On the technique in general: Mobility shift assays separate free from complexed probe on a gel.

The target of a further data set is DnaA;Fis (Escherichia coli;Escherichia coli, UniProt P03004;P0A6R3 1-467;1-98, |). The experiment in a line: EMSA; ADP; DnaA and Fis bind independently; EMSA: 20 mM HEPES-KOH pH 7.6, 80 mM KCl, 1 mM EDTA, 4 mM DTT, 5 mM Mg acetate, 0.1 mg/ml BSA, 10% glycerol, 3 uM ATP or ADP, lambda-DNA competitor, 35 nM DNA, 30 C 5 min; pull-down in same buffer with 400 nM FBS1 competitor, preincubations on ice. Conditions: protein: recombinant;recombinant; tags: ;; copies: 1;2; blunt.

In the next data set the target is Fis (Escherichia coli, UniProt P0A6R3 1-98). In words: EMSA; C1 at 100-200 nM Fis, C2 at >=360 nM; EMSA: 20 mM HEPES-KOH pH 7.6, 80 mM KCl, 1 mM EDTA, 4 mM DTT, 5 mM Mg acetate, 0.1 mg/ml BSA, 10% glycerol, 3 uM ATP or ADP, lambda-DNA competitor, 35 nM DNA, 30 C 5 min; pull-down in same buffer with 400 nM FBS1 competitor, preincubations on ice. The following applies: protein: recombinant; chain copies: 2; blunt.

Data set [2] concerns the target T1, DnaA. In words: EMSA; ATP; trimer formation not considerably inhibited; EMSA: 20 mM HEPES-KOH pH 7.6, 80 mM KCl, 1 mM EDTA, 4 mM DTT, 5 mM Mg acetate, 0.1 mg/ml BSA, 10% glycerol, 3 uM ATP or ADP, lambda-DNA competitor, 35 nM DNA, 30 C 5 min; pull-down in same buffer with 400 nM FBS1 competitor, preincubations on ice. The following applies: protein: recombinant; blunt.

Data set [3] addresses T1, DnaA. The experiment in a line: EMSA; ATP; binding inhibited completely; EMSA: 20 mM HEPES-KOH pH 7.6, 80 mM KCl, 1 mM EDTA, 4 mM DTT, 5 mM Mg acetate, 0.1 mg/ml BSA, 10% glycerol, 3 uM ATP or ADP, lambda-DNA competitor, 35 nM DNA, 30 C 5 min; pull-down in same buffer with 400 nM FBS1 competitor, preincubations on ice. Conditions: protein: recombinant; blunt.
Data set [4] concerns the molecule itself. The experiment in a line: native gel or EMSA; DnaA preincubated with 3 uM ATP, then 30°C for 5 min in buffer G (20 mM HEPES–KOH pH 7.6, 80 mM KCl, 1 mM EDTA, 4 mM DTT, 5 mM magnesium acetate, 0.1 mg/ml BSA, 10% glycerol) with 35 nM 52-bp DARS2 FBS2–5 DNA and competitor λ-DNA; 7% polyacrylamide gel; oligomers counted as DnaA molecules on the DNA fragment (C1–C4).

In data set [5] the target is T1, DnaA. In words: EMSA; ADP; monomer to trimer complexes at suboptimal DnaA; EMSA: 20 mM HEPES-KOH pH 7.6, 80 mM KCl, 1 mM EDTA, 4 mM DTT, 5 mM Mg acetate, 0.1 mg/ml BSA, 10% glycerol, 3 uM ATP or ADP, lambda-DNA competitor, 35 nM DNA, 30 C 5 min; pull-down in same buffer with 400 nM FBS1 competitor, preincubations on ice. The following applies: protein: recombinant; blunt.

Substitutions are numbered along the chain they refer to. Where “and” joins values, the source holds several entries; their conditions need not be identical. Identical values can stand only once.

DnaA;Fis, sequence (P0A6R3 whole entry, one chain of several): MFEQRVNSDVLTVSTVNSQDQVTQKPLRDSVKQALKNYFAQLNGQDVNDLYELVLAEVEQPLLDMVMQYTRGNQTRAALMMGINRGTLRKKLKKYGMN
Fis, sequence (P0A6R3 whole entry): as the sequence (P0A6R3 whole entry, one chain of several) above

B1: FBS2-5 WT (dsDNA)
DNA 1: GGGTTGGCGAAAGATCAACCAATGCCGTATTTATCCACAGAATGTGCCACTA
DNA 2: TAGTGGCACATTCTGTGGATAAATACGGCATTGGTTGATCTTTCGCCAACCC
With B1, the binding result in the data set with DnaA [1], with DnaA;Fis and with Fis was “binds” each time.

B2: FBS2-5 subDnaA box V-c (dsDNA)
DNA 1: B1 DNA 1 with A10G, A11G, A12G, A14G, T15C, A17G
DNA 2: B1 DNA 2 with T36C, A38G, T39C, T41C, T42C, T43C
In the case of B2, in the data set with DnaA [2], the binding result was “binds”.

B3: FBS2-5 subDnaA box V (dsDNA)
DNA 1: B1 DNA 1 with T31A, T32C, T34G, C35G, A39T
DNA 2: B1 DNA 2 with T14A, G18C, A19C, A21G, A22T
As to B3, the binding result with DnaA [3] is recorded as “no binding”.

B4: DnaA (replication initiator protein of Escherichia coli) (natural protein, UniProt P03004 1-467, looked up)
chain: T1 sequence
notes: DnaA, chromosomal replication initiator protein, Escherichia coli; four domains, Arg finger Arg285 in domain III; Preincubated with 3 uM ATP (ATP–DnaA) or ADP (ADP–DnaA) before the EMSA; The nucleotide state is told by the assay, not by a separate molecule; also called ATP–DnaA; ADP–DnaA; source: purified protein
A word on the stoichiometry N: it is the number of molecules, sites or subunits per partner or assembly. With B4, the “stoichiometry N” value in data set [4] is 3 and 4.

B5: oriC R5MI2 R14 (dsDNA)
DNA 1: TCATTACCTGTGGATAACCTGTGGATAACCTGTGGATAACCTGTGGATAAAATGA
DNA 2: TCATTTTATCCACAGGTTATCCACAGGTTATCCACAGGTTATCCACAGGTAATGA
Turning to B5, the binding result in the data set with DnaA [5] is “binds”.
